According to paper PMC13397619:

B1: NLV2 TCR alpha chain (CDR3α only) (parent)
chain: AGPMKTSYDKVI

Variants of: B1
Test: T-Switch: Jurkat TCRβ−/− cells expressing a CDR3 saturation-mutagenesis library, stained with two peptide-HLA-A*02:01 tetramers (original and novel peptide) plus anti-CD3, FACS-sorted into four gates, gDNA sequenced
Settings: tetramers 1 µg/mL, 30 min on ice, SP, DP and SW gates expanded about 10 days between rounds ('two to three rounds of selection' in the Methods), unresolved parent, parent is a CDR3 fragment, scale: fold enrichment, numbering: sequential-on-construct, sequence starts at 1
[1] = with both tetramers (double-negative gate, binds neither): HLA-A*02:01 with … and with …, gate DN: OPPOSITE: higher = more of the variant in the gate that binds neither peptide = LESS binding (or no expression; inferred). Fold enrichment of the CDR3 variant in one FACS gate of a two-tetram
[2] = with both tetramers (double-positive gate): HLA-A*02:01 with … and with …, gate DP: higher = more of the variant in the gate that binds both peptides. Fold enrichment of the CDR3 variant in one FACS gate of a two-tetramer stain. SP/DP/SW gates were expanded and re-sorted bef

[…] (CDR3 as printed); T6A derived by comparing it with the table's wild-type CDR3 AGPMKTSYDKVI
enrichment [1]: 0.82
enrichment [2]: 0

[…] (CDR3 as printed); S7K derived by comparing it with the table's wild-type CDR3 AGPMKTSYDKVI
enrichment [1]: 1.32
enrichment [2]: 0

[…] (CDR3 as printed); K10W derived by comparing it with the table's wild-type CDR3 AGPMKTSYDKVI
enrichment [1]: 1.38
enrichment [2]: 0

[…] (CDR3 as printed); G2P derived by comparing it with the table's wild-type CDR3 AGPMKTSYDKVI
enrichment [1]: 0.883
enrichment [2]: 0

[…] (CDR3 as printed); V11R derived by comparing it with the table's wild-type CDR3 AGPMKTSYDKVI
enrichment [1]: 1.26
enrichment [2]: 0

[…] (CDR3 as printed); T6Y derived by comparing it with the table's wild-type CDR3 AGPMKTSYDKVI
enrichment [1]: 1.48
enrichment [2]: 0

[…] (CDR3 as printed); K10V derived by comparing it with the table's wild-type CDR3 AGPMKTSYDKVI
enrichment [1]: 1.38
enrichment [2]: 0

[…] (CDR3 as printed); Y8F derived by comparing it with the table's wild-type CDR3 AGPMKTSYDKVI
enrichment [1]: 1.1
enrichment [2]: 0

[…] (CDR3 as printed); V11Y derived by comparing it with the table's wild-type CDR3 AGPMKTSYDKVI
enrichment [1]: 1.04
enrichment [2]: 0

[…] (CDR3 as printed); T6R derived by comparing it with the table's wild-type CDR3 AGPMKTSYDKVI
enrichment [1]: 0.792
enrichment [2]: 0

[…] (CDR3 as printed); K5D derived by comparing it with the table's wild-type CDR3 AGPMKTSYDKVI
enrichment [1]: 0.812
enrichment [2]: 0

[…] (CDR3 as printed); V11N derived by comparing it with the table's wild-type CDR3 AGPMKTSYDKVI
enrichment [1]: 1.11
enrichment [2]: 0

[…] (CDR3 as printed); M4Y derived by comparing it with the table's wild-type CDR3 AGPMKTSYDKVI
enrichment [1]: 1.15
enrichment [2]: 0

[…] (CDR3 as printed); T6P derived by comparing it with the table's wild-type CDR3 AGPMKTSYDKVI
enrichment [1]: 0.299
enrichment [2]: 0

[…] (CDR3 as printed); V11S derived by comparing it with the table's wild-type CDR3 AGPMKTSYDKVI
enrichment [1]: 1.15
enrichment [2]: 0

[…] (CDR3 as printed); K5R derived by comparing it with the table's wild-type CDR3 AGPMKTSYDKVI
enrichment [1]: 1.15
enrichment [2]: 0

[…] (CDR3 as printed); S7E derived by comparing it with the table's wild-type CDR3 AGPMKTSYDKVI
enrichment [1]: 1.01
enrichment [2]: 0

[…] (CDR3 as printed); M4T derived by comparing it with the table's wild-type CDR3 AGPMKTSYDKVI
enrichment [1]: 0.518
enrichment [2]: 0

[…] (CDR3 as printed); S7C derived by comparing it with the table's wild-type CDR3 AGPMKTSYDKVI
enrichment [1]: 0.877
enrichment [2]: 0

[…] (CDR3 as printed); G2H derived by comparing it with the table's wild-type CDR3 AGPMKTSYDKVI
enrichment [1]: 0.822
enrichment [2]: 0

[…] (CDR3 as printed); S7Y derived by comparing it with the table's wild-type CDR3 AGPMKTSYDKVI
enrichment [1]: 0.999
enrichment [2]: 0

[…] (CDR3 as printed); M4C derived by comparing it with the table's wild-type CDR3 AGPMKTSYDKVI
enrichment [1]: 0.681
enrichment [2]: 0

[…] (CDR3 as printed); G2F derived by comparing it with the table's wild-type CDR3 AGPMKTSYDKVI
enrichment [1]: 0.804
enrichment [2]: 0

[…] (CDR3 as printed); Y8Q derived by comparing it with the table's wild-type CDR3 AGPMKTSYDKVI
enrichment [1]: 0.629
enrichment [2]: 0

[…] (CDR3 as printed); I12N derived by comparing it with the table's wild-type CDR3 AGPMKTSYDKVI
enrichment [1]: 1.04
enrichment [2]: 0

[…] (CDR3 as printed); G2L derived by comparing it with the table's wild-type CDR3 AGPMKTSYDKVI
enrichment [1]: 0.978
enrichment [2]: 0

[…] (CDR3 as printed); P3G derived by comparing it with the table's wild-type CDR3 AGPMKTSYDKVI
enrichment [1]: 1
enrichment [2]: 0

[…] (CDR3 as printed); I12L derived by comparing it with the table's wild-type CDR3 AGPMKTSYDKVI
enrichment [1]: 0.907
enrichment [2]: 0

[…] (CDR3 as printed); D9R derived by comparing it with the table's wild-type CDR3 AGPMKTSYDKVI
enrichment [1]: 1.08
enrichment [2]: 0

[…] (CDR3 as printed); K10R derived by comparing it with the table's wild-type CDR3 AGPMKTSYDKVI
enrichment [1]: 0.909
enrichment [2]: 0

[…] (CDR3 as printed); K5F derived by comparing it with the table's wild-type CDR3 AGPMKTSYDKVI
enrichment [1]: 0.857
enrichment [2]: 0

[…] (CDR3 as printed); S7F derived by comparing it with the table's wild-type CDR3 AGPMKTSYDKVI
enrichment [1]: 1.22
enrichment [2]: 0

[…] (CDR3 as printed); K5M derived by comparing it with the table's wild-type CDR3 AGPMKTSYDKVI
enrichment [1]: 0.901
enrichment [2]: 0

[…] (CDR3 as printed); T6L derived by comparing it with the table's wild-type CDR3 AGPMKTSYDKVI
enrichment [1]: 1.1
enrichment [2]: 0

[…] (CDR3 as printed); K5C derived by comparing it with the table's wild-type CDR3 AGPMKTSYDKVI
enrichment [1]: 1.03
enrichment [2]: 0

[…] (CDR3 as printed); S7N derived by comparing it with the table's wild-type CDR3 AGPMKTSYDKVI
enrichment [1]: 1.31
enrichment [2]: 0

[…] (CDR3 as printed); I12G derived by comparing it with the table's wild-type CDR3 AGPMKTSYDKVI
enrichment [1]: 1.06
enrichment [2]: 0

[…] (CDR3 as printed); Y8I derived by comparing it with the table's wild-type CDR3 AGPMKTSYDKVI
enrichment [1]: 1.11
enrichment [2]: 0

[…] (CDR3 as printed); G2Y derived by comparing it with the table's wild-type CDR3 AGPMKTSYDKVI
enrichment [1]: 0.902
enrichment [2]: 0

[…] (CDR3 as printed); Y8R derived by comparing it with the table's wild-type CDR3 AGPMKTSYDKVI
enrichment [1]: 1.17
enrichment [2]: 0

[…] (CDR3 as printed); Y8V derived by comparing it with the table's wild-type CDR3 AGPMKTSYDKVI
enrichment [1]: 1.48
enrichment [2]: 0

[…] (CDR3 as printed); A1V derived by comparing it with the table's wild-type CDR3 AGPMKTSYDKVI
enrichment [1]: 0.809
enrichment [2]: 0

[…] (CDR3 as printed); S7A derived by comparing it with the table's wild-type CDR3 AGPMKTSYDKVI
enrichment [1]: 0.945
enrichment [2]: 0

[…] (CDR3 as printed); G2Q derived by comparing it with the table's wild-type CDR3 AGPMKTSYDKVI
enrichment [1]: 0.677
enrichment [2]: 0

[…] (CDR3 as printed); Y8C derived by comparing it with the table's wild-type CDR3 AGPMKTSYDKVI
enrichment [1]: 1.27
enrichment [2]: 0

[…] (CDR3 as printed); I12H derived by comparing it with the table's wild-type CDR3 AGPMKTSYDKVI
enrichment [1]: 1.04
enrichment [2]: 0

[…] (CDR3 as printed); V11G derived by comparing it with the table's wild-type CDR3 AGPMKTSYDKVI
enrichment [1]: 0.956
enrichment [2]: 0

[…] (CDR3 as printed); K5L derived by comparing it with the table's wild-type CDR3 AGPMKTSYDKVI
enrichment [1]: 0.992
enrichment [2]: 0

[…] (CDR3 as printed); M4N derived by comparing it with the table's wild-type CDR3 AGPMKTSYDKVI
enrichment [1]: 0.728
enrichment [2]: 0

[…] (CDR3 as printed); M4Q derived by comparing it with the table's wild-type CDR3 AGPMKTSYDKVI
enrichment [1]: 0.551
enrichment [2]: 0

[…] (CDR3 as printed); I12T derived by comparing it with the table's wild-type CDR3 AGPMKTSYDKVI
enrichment [1]: 0.984
enrichment [2]: 0

[…] (CDR3 as printed); S7I derived by comparing it with the table's wild-type CDR3 AGPMKTSYDKVI
enrichment [1]: 1.04
enrichment [2]: 0

[…] (CDR3 as printed); D9A derived by comparing it with the table's wild-type CDR3 AGPMKTSYDKVI
enrichment [1]: 1.01
enrichment [2]: 0

[…] (CDR3 as printed); G2N derived by comparing it with the table's wild-type CDR3 AGPMKTSYDKVI
enrichment [1]: 0.848
enrichment [2]: 0

[…] (CDR3 as printed); G2R derived by comparing it with the table's wild-type CDR3 AGPMKTSYDKVI
enrichment [1]: 0.977
enrichment [2]: 0

[…] (CDR3 as printed); K10P derived by comparing it with the table's wild-type CDR3 AGPMKTSYDKVI
enrichment [1]: 0.876
enrichment [2]: 0

[…] (CDR3 as printed); T6Q derived by comparing it with the table's wild-type CDR3 AGPMKTSYDKVI
enrichment [1]: 1.14
enrichment [2]: 0
